Measurements published in patent publication US20250043017A1.

Target: human 4-1BB expressed with a C-terminal myc-myc-hexahistidine tag (h4-1BB.mmH) (human)
Experiment: blocking ELISA, 0.25 nM h4-1BB-mmh binding to coated 6His-Flag-h4-1BBL

Chain of human 4-1BB expressed with a C-terminal myc-myc-hexahistidine tag (h4-1BB.mmH) (human) (chain, as listed by the source limits assumed): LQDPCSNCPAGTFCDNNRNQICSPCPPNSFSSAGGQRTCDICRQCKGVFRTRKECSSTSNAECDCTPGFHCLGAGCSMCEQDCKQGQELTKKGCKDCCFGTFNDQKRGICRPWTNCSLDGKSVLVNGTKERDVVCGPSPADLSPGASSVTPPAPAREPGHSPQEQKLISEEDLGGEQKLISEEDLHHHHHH

## Isotype Control 1 (antibody)
  % Blocking at 100 nM mAb: -8%

## Isotype Control 2 (antibody)
  % Blocking at 100 nM mAb: -11%
